What all share (assay type): cell-based, human
For one assay, the system named is HEM-DP melanocytes. Briefly: Proliferation of cultured melanocytes, total cell numbers counted. The note with it: NRG-1 50 ng/ml, as early as day 1 until confluent, vs control. As to the method: (§1) FIGS. 5A-5D illustrate the effect of NRG-1 on the proliferation of human melanocytes in culture. FIG. 5A) Lightly-pigmented (HEM-LP) and FIG. 5B) darkly-pigmented (HEM-DP) melanocytes were treated with or without NRG-1 (50 ng/ml) for 1, 3, 5 or 9 days in 10 cm culture dishes and total cell numbers were counted. Results are the averages of three studies±SD. FIG. 5C) Phosphorylated-Akt levels were detected by western blotting for HEM-LP and HEM-DP melanocytes treated with NRG-1 (50 ng/ml) for 5 days compared to vehicle treated controls; GAPDH is used as a loading control. FIG. 5D) HEM-DP melanocytes were treated with NRG-1 (50 ng/ml) for 1, 3 or 5 days and p-Akt levels were detected by western blotting compared to vehicle treated controls; GAPDH is used as a loading control. Results shown are representative of three studies; statistically significant differences are indicated.
(§2) Human neonatal epidermal melanocytes, lightly and darkly pigmented (HEM-LP and HEM-DP, respectively) were obtained from Cascade Biologics (Portland, Oreg.) and were cultured in melanocyte growth medium (MGM) consisting of Medium 254 and human melanocyte growth supplement (both from Cascade Biologics) at 37° C. under 5% CO2. Melanocytes from the third to ninth passage were used in these studies. […]

The test system of another assay is HEM-LP melanocytes. The assay is described as above. The note with it: NRG-1 50 ng/ml, as early as day 1 until confluent, vs control. On the procedure:
as §1, §2

The next assay concerns phospho-Akt (Ser473). Nature of the assay: Phosphorylated-Akt levels by western blotting in melanocytes. The note with it: NRG-1 50 ng/ml. As to the method:
as §1
Fibroblast cultures in 100-mm dishes were solubilized in appropriate volumes of M-PER mammalian protein extraction reagent (Pierce Biotechnology, Rockford, Ill.) containing a Protease Inhibitor mixture (Roche, Mannheim, Germany) and phosphatase inhibitors. The protein concentration of each extract was measured using a BCA protein assay kit (Pierce, Rockford, Ill.). Cell extracts (20 μg) were separated on 8-16% gradient SDS polyacrylamide gels (Invitrogen, Carlsbad, Calif.), after which proteins were transferred to PVDF membranes (Invitrogen, Carlsbad, Calif.). Membranes were blocked for 1 hour in PBS or Tris buffered saline (TBS) containing 0.1% Tween 20 and 5% (w/v) nonfat dry milk powder and were incubated overnight at 4° C. with the primary antibody in PBS containing 0.1% Tween 20 and 2.5% (w/v) nonfat dry milk powder or in 0.1% Tween-TBS with 5% BSA, depending on the antibody. The following primary antibodies were used: anti-human DKK-1 (0.2 μg/ml), anti-human DKK-3 (0.1 μg/ml), anti-human bFGF (0.1 μg/ml), anti-human SCF (0.1 μg/ml), anti-human mouse monoclonal ERBB3 (1 μg/ml) and anti-human mouse monoclonal ERBB4 (2 μg/ml) antibodies from R&D Systems, neuregulin-1α/β1/2 (C-20) (1:500) and GAPDH (FL-335) (1:10,000) antibodies from Santa Cruz Biotechnology, ERBB2 rabbit monoclonal (1:1000) and phospho-Akt (Ser473) (1:1000) antibodies from Cell Signaling Technology. Membranes were then incubated with an HRP-linked anti-rabbit antibody (GE Healthcare) at 1:10,000 dilution or with an anti-goat antibody (DAKO) at 1:2,000 dilution at room temperature for 1 hour. Antigen-antibody complexes were detected using an ECL-plus Western blotting detection system (GE Healthcare). Each study was performed at least in triplicate. […]
A general note: A western blot detects proteins with antibodies after separation by electrophoresis.

A further assay deals with ERBB4. Briefly: ERBB4 protein level by western blotting in melanocytes. The note with it: HEM-LP and HEM-DP, NRG-1 50 ng/ml, 5 days. On the procedure: FIGS. 7A and 7B are digital images illustrating expression of ERBBs after NRG-1 treatment. FIG. 7A) HEM-LP and HEM-DP melanocytes were treated with or without NRG-1 (50 ng/ml) for 5 days, and levels of ERBB2, ERBB3 or ERBB4 were detected by western blotting. Results shown are representative of three studies. FIG. 7B) Expression of ERBB2 was examined in HEM-LP and in HEM-DP melanocytes after 1 or 9 days or treatment with NRG-1 compared to vehicle-treated controls; the results are representative of two independent studies.
Fibroblast cultures in 100-mm dishes were solubilized in appropriate volumes of M-PER mammalian protein extraction reagent (Pierce Biotechnology, Rockford, Ill.) containing a Protease Inhibitor mixture (Roche, Mannheim, Germany) and phosphatase inhibitors. The protein concentration of each extract was measured using a BCA protein assay kit (Pierce, Rockford, Ill.). Cell extracts (20 μg) were separated on 8-16% gradient SDS polyacrylamide gels (Invitrogen, Carlsbad, Calif.), after which proteins were transferred to PVDF membranes (Invitrogen, Carlsbad, Calif.). […] Antigen-antibody complexes were detected using an ECL-plus Western blotting detection system (GE Healthcare). […]

B1: NRG-1: commercially available recombinant human neuregulin-1 (rhNRG-1-β1, R&D Systems), SEQ ID NO: 11 (protein)
chain: TSHLVKCAEKEKTFCVNGGECFMVKDLSNPSRYLCKCPNEFTGDRCQNYVMASFYKHLGIEFMEAEELYQK
On to B1, for which the Cell numbers result in the assay with HEM-DP melanocytes and with HEM-LP melanocytes was “significantly higher” each time. Further, the “Levels of p-Akt” value with phospho-Akt (Ser473) (HEM-DP, day 1, low confluency, vs control) is listed as “equally high”; in the assay with phospho-Akt (Ser473) (HEM-DP, day 5, vs control) it was “significantly higher”; in the assay with phospho-Akt (Ser473) (HEM-LP, day 5, vs control), “significantly higher”. The “Levels of p-Akt, time course” value in the assay on phospho-Akt (Ser473) (HEM-DP, day 3 through day 5, control decreased by day 3) is “maintained higher levels of p-Akt through day 5”. Moreover, the “Levels of ERBB4 expression” value in the assay on ERBB4 is reported as “did not change”.
